# Test results: IntAct's records for PubMed 23782464
# B1: Bcl-2 homologous antagonist/killer (Homo sapiens), Q16611 (parent)
# chain: MASGQGPGPPRQECGEPALPSASEEQVAQDTEEVFRSYVFYRHQQEQEAEGVAAPADPEMVTLPLQPSSTMGQVGRQLAIIGDDINRRYDSEFQTMLQHLQPTAENAYEYFTKIATSLFESGINWGRVVALLGFGYRLALHVYQHGLTGFLGQVTRFVVDFMLHHCIARWIAQRGGWVAALNLGNGPILNVLVVLGVVLLGQFVVRRFFKS
# partner: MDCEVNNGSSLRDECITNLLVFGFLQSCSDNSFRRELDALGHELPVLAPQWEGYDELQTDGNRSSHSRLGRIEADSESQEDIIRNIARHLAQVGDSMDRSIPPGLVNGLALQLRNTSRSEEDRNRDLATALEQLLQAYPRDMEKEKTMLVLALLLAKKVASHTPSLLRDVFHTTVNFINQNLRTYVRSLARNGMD
# Variants of: B1
# Settings: with bid_human BID
row,effect of a mutation on the interaction,Variant
1,increasing interaction,Y110E
